The record followed here is US20160159927A1.

The target in assay [1] is PD1 (over-expressed on cells). As to the kind of experiment: cell-cell conjugation: dye-labelled A20-PD-L1 and A20-PD1 cells mixed, double-positive events read by flow cytometry (positive control). A general note: A flow cytometer gives signals particle by particle.
In assay [2] the target is VSIG8 (over-expressed on cells; species not stated) (Homo sapiens (Human)) (UniProt P0DPA2). Put plainly: cell-cell conjugation: dye-labelled A20-VISTA and A20-VSIG8 cells mixed, double-positive events read by flow cytometry.
The target is the same in assay [3]. As to the kind of experiment: cell-cell conjugation: two differently dye-labelled lots of A20-VSIG8 cells mixed, double-positive events read by flow cytometry (negative control).

The substance “PD-L1 (over-expressed on A20 cells) (ligand)” gave a Q2 (percent double-positive, conjugated cells) in assay [1] of 28. In turn, “VISTA (over-expressed on A20 cells; species not stated) (from UniProt Q9H7M9 33-311) (ligand)” returned a Q2 (percent double-positive, conjugated cells) in assay [2] of 11.4. “VSIG8 (over-expressed on cells; species not stated) (from UniProt P0DPA2 22-414) (receptor)” gave a Q2 (percent double-positive, conjugated cells) in assay [3] of 3.92.
